# Measurements from PMC4336284.
# System: T1, GAF (GAGA-binding factor), His-GAF (Drosophila melanogaster), Q08605-2
# T1 sequence: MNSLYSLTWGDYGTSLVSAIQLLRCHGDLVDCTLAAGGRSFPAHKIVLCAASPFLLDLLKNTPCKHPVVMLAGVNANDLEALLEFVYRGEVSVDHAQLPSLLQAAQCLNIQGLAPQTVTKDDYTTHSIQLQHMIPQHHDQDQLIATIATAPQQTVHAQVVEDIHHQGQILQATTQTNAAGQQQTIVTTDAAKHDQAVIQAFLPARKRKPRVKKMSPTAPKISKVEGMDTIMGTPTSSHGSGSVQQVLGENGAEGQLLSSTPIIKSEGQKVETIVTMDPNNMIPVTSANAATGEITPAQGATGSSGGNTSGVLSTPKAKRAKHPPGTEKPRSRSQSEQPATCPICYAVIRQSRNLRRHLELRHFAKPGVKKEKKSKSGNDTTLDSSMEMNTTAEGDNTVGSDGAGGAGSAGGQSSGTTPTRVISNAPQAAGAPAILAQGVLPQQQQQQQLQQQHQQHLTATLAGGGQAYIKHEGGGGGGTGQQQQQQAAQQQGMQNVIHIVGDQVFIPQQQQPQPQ
# Test: EMSA
# Settings: GAF: band shift buffer of cited ref 25 (composition not given), poly(dI-dC) 10 ng, 4.5% acrylamide Tris/borate/EDTA gel; HSF: 10 ug extract protein, as in ref …
sequence,measurement,value
CTGTTCTCGTTGCTTCGAGAGAGCGCGCCTCGAATGTTCGCGAAAAGAGCGCCGGAGTATAAATAGAGGAGCTTCGTCGACGGAGAGTCAA (double strand) [hsp70Aa promoter PCR fragment],binding,binds
